# Entries after “also recorded” stand apart in the source; their conditions may differ. Where no end group is shown, it is not given here.
# Experiments:
# [1] = Treatment toxicity: body weight and drug-induced animal deaths in B16 melanoma-bearing mice; format: in vivo, C57BL/6 mice; settings: for body weight effect in words (loss / difference vs vehicle group): throughout the course of the study
# Procedure: (§1) The toxic effects of the dosing regimens were also monitored. […] Meanwhile 9H10 was given in two groups via i.p. on Day 3, 6 and 9. […] Tumor volume and body weight were measured every three days, and tumor weights were measured on Day 16 at the end of the study.
# (§2) On Day 3, the animals were randomly assigned into nine different weight-matched and tumor-size-matched groups. Dosing was started on Day 3 using the regimen according to Table 2.
# (§3) From Day 1 to Day 15, mortality and moribundity were checked twice daily, the body weights were recorded once every 3 days, and tumors were measured using a caliper once every 3 days. At the end of the study (Day 16), the animals were euthanized by CO2 asphyxiation, and the tumors were excised and weighed.
# Toxicity of all treatment regimens was evaluated with the body weights of the study animals along with the drug-induced animal deaths. The inhibition of body weight was calculated using Excel according to the equation below:
# PIBW(%)=100×(BW vehicle−BW drug treated)/BW vehicle
# (§4) Inter-group comparison was performed in terms of tumor volume, tumor weight and body weight, using a student's t test. P values of less than 0.05 were considered to be statistically significant.
# [2] = system: murine B16 melanoma cells; assay: Anti-tumor effect: tumor weight at necropsy (Day 16) in mice bearing subcutaneous B16 melanoma; format: in vivo, C57BL/6 mice; settings: for Tumor Weight (g) (Mean ± SD): group mean
# Procedure: as §1
# On the day of tumor implantation, approximately 1×10^6 cells in 0.1 mL were subcutaneously injected on the right axillary area of each mouse. The day of tumor implantation was defined as Day 0.
# as §2, §3
# The anti-tumor effect of the test article was further evaluated with tumor weight (TW) measured on day of necropsy (Day 16). The PI of TW was calculated using the equation below:
# PITW(%)=100×(TW vehicle−TW drug treated)/TW vehicle
# as §4
compound,measurement,setting,value
CNC(=O)c1cc(Oc2ccc(NC(=O)Nc3ccc(Cl)c(C(F)(F)F)c3)cc2)ccn1 [Sorafenib],Body Weight (g) (Mean ± SD),"[1]; Day 0 (tumor implantation, before dosing)",21.02 ± 0.834 g
same,Percent inhibition of body weight vs vehicle (PIBW),[1]; Day 0,−0.9121%
same,Percent inhibition of body weight vs vehicle (PIBW),[1]; Day 3,0.0000%
same,Body Weight (g) (Mean ± SD),[1]; Day 6,20.74 ± 1.023 g
same,Percent inhibition of body weight vs vehicle (PIBW),[1]; Day 6,−1.6667%
same,Body Weight (g) (Mean ± SD),[1]; Day 9,19.75 ± 1.307 g
same,Body weights on Day 9,"[1]; Day 9, animal F1",18.60 g
same,Body weights on Day 9,"[1]; Day 9, animal F2",18.40 g
same,Body weights on Day 9,"[1]; Day 9, animal F3",18.40 g
same,Body weights on Day 9,"[1]; Day 9, animal F4",18.60 g
same,Body weights on Day 9,"[1]; Day 9, animal F5",19.80 g
same,Body weights on Day 9,"[1]; Day 9, animal M1",20.80 g
same,Body weights on Day 9,"[1]; Day 9, animal M2",22.10 g
same,Body weights on Day 9,"[1]; Day 9, animal M3",20.40 g
same,Body weights on Day 9,"[1]; Day 9, animal M4",21.10 g
same,Body weights on Day 9,"[1]; Day 9, animal M5",19.30 g
same,Percent inhibition of body weight vs vehicle (PIBW),[1]; Day 9,3.2337%
same,Body Weight (g) (Mean ± SD),[1]; Day 12,20.09 ± 1.534 g
same,Body weights on Day 12,"[1]; Day 12, animal F1",19.00 g
same,Body weights on Day 12,"[1]; Day 12, animal F2",17.20 g
same,Body weights on Day 12,"[1]; Day 12, animal F3",20.80 g
same,Body weights on Day 12,"[1]; Day 12, animal F4",18.30 g
same,Body weights on Day 12,"[1]; Day 12, animal F5",20.30 g
same,Body weights on Day 12,"[1]; Day 12, animal M1",22.10 g
same,Body weights on Day 12,"[1]; Day 12, animal M2",21.40 g
same,Body weights on Day 12,"[1]; Day 12, animal M3",20.40 g
same,Body weights on Day 12,"[1]; Day 12, animal M4",21.50 g
same,Body weights on Day 12,"[1]; Day 12, animal M5",19.90 g
same,Percent inhibition of body weight vs vehicle (PIBW),[1]; Day 12,8.2229%
same,Percent inhibition of body weight vs vehicle (PIBW),"[1]; Day 12, listed as Sorafenib alone",8.22%
same,Body Weight (g) (Mean ± SD),[1]; Day 15,21.41 ± 1.919 g
same,Body weights on Day 15,"[1]; Day 15, animal F1",20.70 g
same,Body weights on Day 15,"[1]; Day 15, animal F2",17.50 g
same,Body weights on Day 15,"[1]; Day 15, animal F3",21.10 g
same,Body weights on Day 15,"[1]; Day 15, animal F4",19.90 g
same,Body weights on Day 15,"[1]; Day 15, animal F5",21.50 g
same,Body weights on Day 15,"[1]; Day 15, animal M1",23.90 g
same,Body weights on Day 15,"[1]; Day 15, animal M2",23.80 g
same,Body weights on Day 15,"[1]; Day 15, animal M3",22.20 g
same,Body weights on Day 15,"[1]; Day 15, animal M4",22.80 g
same,Body weights on Day 15,"[1]; Day 15, animal M5",20.70 g
same,Percent inhibition of body weight vs vehicle (PIBW),[1]; Day 15,3.2972%
same,Tumor weight on Day 16,[2]; animal F1,0.23 g
same,Tumor weight on Day 16,[2]; animal F2,0.16 g
same,Tumor weight on Day 16,[2]; animal F3,0.32 g
same,Tumor weight on Day 16,[2]; animal F4,0.30 g
same,Tumor weight on Day 16,[2]; animal F5,0.16 g
same,Tumor weight on Day 16,[2]; animal M1,0.10 g
same,Tumor weight on Day 16,[2]; animal M2,0.38 g
same,Tumor weight on Day 16,[2]; animal M3,0.20 g
same,Tumor weight on Day 16,[2]; animal M4,0.25 g
same,Tumor weight on Day 16,[2]; animal M5,0.32 g
same,Tumor Weight (g) (Mean ± SD),[2],0.24 ± 0.088 g
same,percent inhibition of tumor weight vs vehicle,[2],85.76%
"Thymosin Alpha-1 (Ac-SDAAVDTSSEITTKDLKEKKEVVEEAEN; ends and bridges not checked; UniProt P06454 2-29, looked up) [TA-1, 28 amino acid peptide, immunomodulator; test article (SciClone), 6 mg/kg s.c. daily]",Body weights on Day 0,"[1]; Day 0, animal F1",21.40 g
same,Body weights on Day 0,"[1]; Day 0, animal F2",19.20 g
same,Body weights on Day 0,"[1]; Day 0, animal F3",21.10 g
same,Body weights on Day 0,"[1]; Day 0, animal F4",20.20 g
same,Body weights on Day 0,"[1]; Day 0, animal F5",19.00 g
same,Body weights on Day 0,"[1]; Day 0, animal M1",21.60 g
same,Body weights on Day 0,"[1]; Day 0, animal M2",22.50 g
same,Body weights on Day 0,"[1]; Day 0, animal M3",22.10 g
same,Body weights on Day 0,"[1]; Day 0, animal M4",21.70 g
same,Body weights on Day 0,"[1]; Day 0, animal M5",19.80 g
same,Percent inhibition of body weight vs vehicle (PIBW),[1]; Day 0,−0.1440%
same,Body Weight (g) (Mean ± SD),[1]; Day 3 (start of dosing),20.44 ± 1.460 g
same,Body weights on Day 3,"[1]; Day 3, animal F3",20.40 g
same,Body weights on Day 3,"[1]; Day 3, animal F4",20.30 g
same,Body weights on Day 3,"[1]; Day 3, animal F5",17.20 g
same,Body weights on Day 3,"[1]; Day 3, animal M1",21.40 g
same,Body weights on Day 3,"[1]; Day 3, animal M2",22.20 g
same,Body weights on Day 3,"[1]; Day 3, animal M3",21.60 g
same,Body weights on Day 3,"[1]; Day 3, animal M4",21.50 g
same,Percent inhibition of body weight vs vehicle (PIBW),[1]; Day 3,2.1073%
same,Body Weight (g) (Mean ± SD),[1]; Day 6,21.38 ± 1.220 g
same,Body weights on Day 6,"[1]; Day 6, animal F1",22.10 g
same,Body weights on Day 6,"[1]; Day 6, animal F2",20.10 g
same,Body weights on Day 6,"[1]; Day 6, animal F3",21.80 g
same,Body weights on Day 6,"[1]; Day 6, animal F4",20.80 g
same,Body weights on Day 6,"[1]; Day 6, animal F5",20.20 g
same,Body weights on Day 6,"[1]; Day 6, animal M1",22.00 g
same,Body weights on Day 6,"[1]; Day 6, animal M2",22.90 g
same,Body weights on Day 6,"[1]; Day 6, animal M3",22.30 g
same,Body weights on Day 6,"[1]; Day 6, animal M4",22.40 g
same,Body weights on Day 6,"[1]; Day 6, animal M5",19.20 g
same,Percent inhibition of body weight vs vehicle (PIBW),[1]; Day 6,−4.8039%
same,Body weights on Day 9,"[1]; Day 9, animal F1",21.50 g
same,Body weights on Day 9,"[1]; Day 9, animal F2",19.70 g
same,Body weights on Day 9,"[1]; Day 9, animal F3",20.30 g
same,Body weights on Day 9,"[1]; Day 9, animal F4",20.40 g
same,Body weights on Day 9,"[1]; Day 9, animal F5",19.20 g
same,Body weights on Day 9,"[1]; Day 9, animal M1",21.50 g
same,Body weights on Day 9,"[1]; Day 9, animal M2",22.40 g
same,Body weights on Day 9,"[1]; Day 9, animal M3",22.00 g
same,Body weights on Day 9,"[1]; Day 9, animal M4",21.90 g
same,Body weights on Day 9,"[1]; Day 9, animal M5",19.90 g
same,Percent inhibition of body weight vs vehicle (PIBW),[1]; Day 9,−2.3028%
same,Body Weight (g) (Mean ± SD),[1]; Day 12,21.24 ± 1.623 g
same,Body weights on Day 12,"[1]; Day 12, animal F1",21.90 g
same,Body weights on Day 12,"[1]; Day 12, animal F2",19.10 g
same,Body weights on Day 12,"[1]; Day 12, animal F3",20.70 g
same,Body weights on Day 12,"[1]; Day 12, animal F5",18.90 g
same,Body weights on Day 12,"[1]; Day 12, animal M1",22.60 g
same,Body weights on Day 12,"[1]; Day 12, animal M2",23.50 g
same,Body weights on Day 12,"[1]; Day 12, animal M3",22.70 g
same,Body weights on Day 12,"[1]; Day 12, animal M4",22.40 g
same,Body weights on Day 12,"[1]; Day 12, animal M5",19.70 g
same,Percent inhibition of body weight vs vehicle (PIBW),[1]; Day 12,2.9694%
same,Body Weight (g) (Mean ± SD),[1]; Day 15,22.74 ± 1.459 g
same,Body weights on Day 15,"[1]; Day 15, animal F1",24.30 g
same,Body weights on Day 15,"[1]; Day 15, animal F2",20.70 g
same,Body weights on Day 15,"[1]; Day 15, animal F3",22.30 g
same,Body weights on Day 15,"[1]; Day 15, animal F4",21.80 g
same,Body weights on Day 15,"[1]; Day 15, animal F5",21.30 g
same,Body weights on Day 15,"[1]; Day 15, animal M1",22.60 g
same,Body weights on Day 15,"[1]; Day 15, animal M2",24.50 g
same,Body weights on Day 15,"[1]; Day 15, animal M3",24.70 g
same,Body weights on Day 15,"[1]; Day 15, animal M4",23.70 g
same,Body weights on Day 15,"[1]; Day 15, animal M5",21.50 g
same,Percent inhibition of body weight vs vehicle (PIBW),[1]; Day 15,−2.7100%
same,body weight effect in words (loss / difference vs vehicle group),[1],did no cause any statistically significant loss of body weights; also recorded: did not cause any loss of body weights
same,body weight effect in words (loss / difference vs vehicle group),[1]; listed as TA-1 alone,no statistical differences in body weights
same,Tumor weight on Day 16,[2]; animal F1,0.63 g
same,Tumor weight on Day 16,[2]; animal F2,0.44 g
same,Tumor weight on Day 16,[2]; animal F3,0.45 g
same,Tumor weight on Day 16,[2]; animal F4,0.75 g
same,Tumor weight on Day 16,[2]; animal F5,0.08 g
same,Tumor weight on Day 16,[2]; animal M1,0.73 g
same,Tumor weight on Day 16,[2]; animal M2,1.30 g
same,Tumor weight on Day 16,[2]; animal M3,2.00 g
same,Tumor weight on Day 16,[2]; animal M4,2.20 g
same,Tumor weight on Day 16,[2]; animal M5,1.05 g
same,Tumor Weight (g) (Mean ± SD),[2],0.96 ± 0.688 g
same,percent inhibition of tumor weight vs vehicle,[2],43.35%

# Reference: US20100267637A1, “TREATMENT OF MELANOMA WITH ALPHA THYMOSIN PEPTIDES IN COMBINATION WITH A KINASE INHIBITOR” (SciClone Pharmaceuticals, Inc., priority 2007, published 2010)
